Assays:
Experiment in all cases: flow cytometry, alanine-scan library in HEK-293T
[1] = molecular target: T1, hsGLUT4 D506A (human, UniProt P14672 1-509)
T1 sequence: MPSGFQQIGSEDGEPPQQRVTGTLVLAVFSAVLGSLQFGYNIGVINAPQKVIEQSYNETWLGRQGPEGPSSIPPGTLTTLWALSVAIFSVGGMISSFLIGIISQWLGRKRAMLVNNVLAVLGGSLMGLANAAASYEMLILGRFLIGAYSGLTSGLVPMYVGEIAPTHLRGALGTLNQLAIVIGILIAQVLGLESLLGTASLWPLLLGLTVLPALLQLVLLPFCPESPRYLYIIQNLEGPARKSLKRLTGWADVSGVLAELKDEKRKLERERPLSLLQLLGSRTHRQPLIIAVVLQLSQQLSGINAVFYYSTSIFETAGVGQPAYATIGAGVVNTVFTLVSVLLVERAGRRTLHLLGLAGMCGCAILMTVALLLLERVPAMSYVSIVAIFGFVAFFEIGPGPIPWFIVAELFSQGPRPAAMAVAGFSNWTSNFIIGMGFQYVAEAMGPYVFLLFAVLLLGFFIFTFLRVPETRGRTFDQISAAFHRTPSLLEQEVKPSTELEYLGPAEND
Procedure, shortened: (§1)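 HEK-293T cells expressing individual GLUT4 alanine mutants were stained 48 h post-transfection with anti-GLUT4 scFv MAbs (2 μg/ml), then biotinylated secondary and streptavidin-PerCP, and read by high-throughput flow cytometry. Where used, cytochalasin B (10 uM final) was given for 30 min before and during primary antibody staining.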

[2] = molecular target: T2, hsGLUT4 G356A (human, UniProt P14672 1-509)
T2 sequence: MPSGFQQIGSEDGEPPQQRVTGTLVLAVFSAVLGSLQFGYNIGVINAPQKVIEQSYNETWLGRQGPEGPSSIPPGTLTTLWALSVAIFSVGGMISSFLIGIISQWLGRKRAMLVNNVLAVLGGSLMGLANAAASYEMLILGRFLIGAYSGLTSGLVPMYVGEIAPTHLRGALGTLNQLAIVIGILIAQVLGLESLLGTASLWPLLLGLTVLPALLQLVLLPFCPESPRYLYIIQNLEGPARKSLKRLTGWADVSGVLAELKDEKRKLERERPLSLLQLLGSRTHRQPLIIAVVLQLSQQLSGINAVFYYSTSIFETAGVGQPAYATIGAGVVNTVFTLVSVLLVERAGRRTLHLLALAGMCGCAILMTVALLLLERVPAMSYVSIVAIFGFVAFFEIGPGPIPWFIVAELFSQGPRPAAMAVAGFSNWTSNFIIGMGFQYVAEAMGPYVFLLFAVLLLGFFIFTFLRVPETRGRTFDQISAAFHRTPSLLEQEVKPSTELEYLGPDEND
Procedure, shortened: as §1

[3] = molecular target: T3, hsGLUT4 I163A (human, UniProt P14672 1-509)
T3 sequence: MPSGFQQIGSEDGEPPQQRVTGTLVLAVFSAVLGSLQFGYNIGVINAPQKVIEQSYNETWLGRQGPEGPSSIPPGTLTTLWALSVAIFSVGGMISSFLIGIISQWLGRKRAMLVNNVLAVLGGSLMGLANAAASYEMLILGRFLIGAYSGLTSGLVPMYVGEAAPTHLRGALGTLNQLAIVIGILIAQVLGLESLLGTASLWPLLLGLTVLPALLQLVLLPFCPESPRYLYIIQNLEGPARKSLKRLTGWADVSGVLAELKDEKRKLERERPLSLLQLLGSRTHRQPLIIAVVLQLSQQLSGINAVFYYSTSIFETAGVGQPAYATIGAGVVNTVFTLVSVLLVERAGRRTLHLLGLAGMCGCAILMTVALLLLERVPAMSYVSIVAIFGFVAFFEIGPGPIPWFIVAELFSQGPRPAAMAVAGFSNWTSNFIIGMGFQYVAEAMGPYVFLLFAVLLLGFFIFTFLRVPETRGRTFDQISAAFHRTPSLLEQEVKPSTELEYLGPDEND
Procedure, shortened: as §1

[4] = molecular target: T4, hsGLUT4 E162A (human, UniProt P14672 1-509)
T4 sequence: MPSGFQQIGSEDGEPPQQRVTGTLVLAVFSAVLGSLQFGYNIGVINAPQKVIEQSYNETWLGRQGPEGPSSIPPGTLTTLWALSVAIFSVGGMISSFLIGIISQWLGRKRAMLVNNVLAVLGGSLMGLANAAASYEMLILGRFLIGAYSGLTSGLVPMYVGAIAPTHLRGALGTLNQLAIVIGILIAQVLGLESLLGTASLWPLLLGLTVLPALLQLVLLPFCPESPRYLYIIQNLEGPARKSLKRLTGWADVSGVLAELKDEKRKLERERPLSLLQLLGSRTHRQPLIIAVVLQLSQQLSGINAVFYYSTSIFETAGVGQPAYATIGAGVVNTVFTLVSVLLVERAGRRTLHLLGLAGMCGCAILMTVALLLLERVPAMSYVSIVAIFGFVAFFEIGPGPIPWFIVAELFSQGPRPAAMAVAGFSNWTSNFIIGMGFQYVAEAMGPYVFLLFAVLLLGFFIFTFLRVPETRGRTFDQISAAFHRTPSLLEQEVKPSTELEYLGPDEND
Procedure, shortened: as §1

| Molecule | % of binding to wild type GLUT4 [1] [%] | % of binding to wild type GLUT4 [2] [%] | % of binding to wild type GLUT4 [3] [%] | % of binding to wild type GLUT4 [4] [%] |
| --- | --- | --- | --- | --- |
| 1F8 (antibody) | 29 | 90 | 91 | 87 |
| AB108 (Fc fusion, Bivalent scFv-Fc; also called MAb AB108; not shown: Fc fragment of human IgG1, cloned in frame with the scFv) scFv: ALTQPSSVSANLGGTVKITCSGSSGSYGWYQQKAPGSAPVTLIYRNDKRPSDIPSRFSGSESGSTGTLTITGVQAEDEAVYFCGGYDSSAGYAAFGAGTTLTVLGQSSRSSGGGGSSGGGGSAVTLDESGGGLQTPGGALSLVCKASGFTFSSHGMGWVRQAPGKGLEWVGSISTGRYTFYAPAVKGRATISRDNGQSTLRLQLNNLRAEDTGTYYCTKCAGLNGCGGGEIDAWGHGTEVIVSS | 105 | 19 | 90 | 41 |
| AB111 (Fc fusion, Bivalent scFv-Fc; also called MAb AB111; not shown: Fc fragment of human IgG1, cloned in frame with the scFv) scFv: ALTQPSSVSANPGETVKITCSGSGSWYGWFQQKSPGSAPVTVIYSNDKRPSDIPSRFSGSKSGSTSTLTITGVQVEDEAVYYCGNWDIFGAGTTLTVLGQSSRSSGGGGSSGGGGSAVTLDESGGGLQTPGGALSLVCKASGFTFSSHGMGWVRQAPGKGLEWVASISTGRYTFYAPAVKGRATISRDNGQSTVRLQLNNLRAEDTATYYCTKCAGLNGCGGGEIDAWGHGTEVIVSS | 158 | 137 | 87 | 72 |
| AB101 (scFv, Chicken-derived clone used as a control; the four lead clones were tested as scFv-human IgG1 Fc; also called MAb AB101) scFv: ALTQPSSVSANPGETVKITCSGSSNSYGWYQQKSPGSAPVTVIYYNDKRPSDIPSRFSGSKSDSTHTLTITGVRAEDEAVYFCGSYDSTYVGIFGAGTTLTVLGQSSRSSGGGGSSGGGGSAVTLDESGGGLQTPGGTLSLVCKASGFTFSSNAMGWVRQAPGKGLEWVAGISSDGRYTKYGSAVKGRATISRDNGQSTVRLQLNNLRAEDTGTYFCAKAFGNNYRRIYAGQIDAWGHGTEVIVSS | 34 | 46 | 115 | 83 |

Source: patent publication US20210238276A1 (INTEGRAL MOLECULAR, published 2021)
